Results published in US20230295277A1.

Experiments:
Assay in all cases: cell-based or functional assay
[1] = target: CD19 on REH cells (human) (UniProt P15391)
[2] = target: subtype C consensus gp160 protein expressed on HEK293 cells (vector pConCgp160-opt) (HIV-1 subtype C (consensus))
[3] = target: full-length subtype B consensus gp160 expressed on HEK293 cells (vector pConBgp160-opt) (HIV-1 subtype B (consensus))

Chain of UniProt P15391 (P15391 20-556): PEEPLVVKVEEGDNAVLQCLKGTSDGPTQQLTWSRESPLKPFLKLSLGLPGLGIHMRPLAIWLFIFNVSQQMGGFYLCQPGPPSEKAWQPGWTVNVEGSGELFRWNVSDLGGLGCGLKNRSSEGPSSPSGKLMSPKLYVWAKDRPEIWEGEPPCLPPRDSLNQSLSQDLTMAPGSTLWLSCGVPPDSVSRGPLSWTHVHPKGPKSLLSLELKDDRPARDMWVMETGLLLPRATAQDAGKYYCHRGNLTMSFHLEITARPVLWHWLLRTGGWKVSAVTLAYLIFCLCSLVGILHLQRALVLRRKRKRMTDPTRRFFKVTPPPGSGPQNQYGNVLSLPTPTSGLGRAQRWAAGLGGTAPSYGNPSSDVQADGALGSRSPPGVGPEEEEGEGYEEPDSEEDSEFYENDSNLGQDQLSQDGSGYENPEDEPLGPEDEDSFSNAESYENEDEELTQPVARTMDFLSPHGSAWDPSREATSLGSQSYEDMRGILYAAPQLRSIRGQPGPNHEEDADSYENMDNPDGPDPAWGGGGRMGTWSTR

Substance: DNP-conjugated anti-CD19 antibody (clone FMC63)
- percentage of REH cells killed by anti-DNP CAR-NK cells, flow cytometry, E:T 25:1, overnight, adaptor 50 nM [1]: 59%
- percentage of REH cells remaining alive, flow cytometry, E:T 25:1, overnight, adaptor 50 nM [1]: 41%

Substance: DNP-conjugated PG9 (antibody)
- percentage of subtype C gp160+ cells killed by anti-DNP CAR-NK cells, 8 h, E:T 25:1, adaptor 2 nM [2]: 30%
- percentage of gp160+ cells killed by anti-DNP CAR-NK cells, flow cytometry, 8 h, E:T 25:1, adaptor 2 nM [3]: 50%

Substance: DNP-conjugated 3BNC117 (antibody)
- percentage of gp160+ cells killed by universal CAR-NK cells [2]: 19.7%
- percentage of subtype C gp160+ cells lysed by anti-DNP CAR-NK cells, 8 h, E:T 25:1, adaptor 2 nM [2]: 20%
- IFN-γ production by anti-DNP CAR-NK cells (ELISA), adaptor 2 nM, against the isotype control [3]: 2 fold
- percentage of gp160+ cells killed by anti-DNP CAR-NK cells, flow cytometry, 8 h, E:T 25:1, adaptor 2 nM [3]: 50%
- percentage of gp160+ cells killed by universal CAR-NK cells [3]: 45.5%

Substance: 2G12-based anti-gp160 CAR (pFUW-2G12-CD28-CD3ζ) on NK-92MI cells (from UniProt P01732 138-182; P10747 153-220; P20963 52-164)
- percentage of gp160+ cells killed by 2G12 CAR-NK cells, E:T 25:1 [3]: 60%

Substance: DNP-conjugated VRC01 (antibody)
- percentage of subtype C gp160+ cells lysed by anti-DNP CAR-NK cells, 8 h, E:T 25:1, adaptor 2 nM [2]: 20%
- percentage of gp160+ cells killed by anti-DNP CAR-NK cells, flow cytometry, 8 h, E:T 25:1, adaptor 2 nM [3]: 28.5%

Substance: DNP-conjugated 10-1074 (antibody)
- percentage of gp160+ cells killed by universal CAR-NK cells [2]: 29.8%
- percentage of subtype C gp160+ cells killed by anti-DNP CAR-NK cells, 8 h, E:T 25:1, adaptor 2 nM [2]: 30%
- percentage of gp160+ cells killed by anti-DNP CAR-NK cells, flow cytometry, 8 h, E:T 25:1, adaptor 2 nM [3]: 50%
- percentage of gp160+ cells killed by anti-DNP CAR-T cells, E/T 1:1, 48 h, adaptor 10 nM [3]: 29%
- percentage of gp160+ cells killed by universal CAR-NK cells [3]: 53.1%

Substance: DNP-conjugated antibody 2G12
- adaptor concentration at which IFN-γ production of CAR-NK cells reached a plateau [3]: > 2 nM
- percentage of gp160+ cells killed by anti-DNP CAR-NK cells, flow cytometry, 8 h, E:T 25:1, adaptor 2 nM [3]: 50%
- percentage of gp160+ cells killed by anti-DNP CAR-T cells, E/T 1:1, 48 h, adaptor 10 nM [3]: 34%
- percentage of gp160+ cells killed by universal (anti-DNP) CAR-NK cells with DNP-conjugated 2G12, E:T 25:1 [3]: 50%
